Measured values published in patent US20180022780A1 (Bayer, published 2018).
Bridge positions count the residues as written; N and C are the ends. Square brackets hold non-standard residues; d marks the D form. Ends that are not written are not given here. Orn = NCCC[C@H](N)C(=O)O

Tests used:
[1] = molecular target: human adrenomedullin-receptor (human, UniProt Q16602 23-461); assay: cell-based or functional assay
[2] = molecular target: CLR fused to EYFP with RAMP2 fused to ECFP; assay: cell-based or functional assay
CLR fused to EYFP with RAMP2 fused to ECFP, sequence (Q16602 whole entry, chain 1 of 2, the tested form may be a part): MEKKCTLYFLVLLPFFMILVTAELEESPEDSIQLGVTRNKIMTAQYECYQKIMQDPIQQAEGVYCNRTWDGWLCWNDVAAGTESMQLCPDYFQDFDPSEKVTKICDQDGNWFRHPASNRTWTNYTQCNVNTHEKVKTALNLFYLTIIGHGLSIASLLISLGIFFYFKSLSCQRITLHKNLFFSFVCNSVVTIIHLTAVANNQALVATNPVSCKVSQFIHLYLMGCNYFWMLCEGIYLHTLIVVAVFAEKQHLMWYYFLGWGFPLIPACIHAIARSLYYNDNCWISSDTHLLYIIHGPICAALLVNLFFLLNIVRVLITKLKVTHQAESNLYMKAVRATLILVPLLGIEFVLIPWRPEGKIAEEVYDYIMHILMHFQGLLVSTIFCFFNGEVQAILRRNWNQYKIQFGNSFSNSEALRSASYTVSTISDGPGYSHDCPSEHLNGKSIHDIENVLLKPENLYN
CLR fused to EYFP with RAMP2 fused to ECFP, sequence (O60895 whole entry, chain 2 of 2, further chain, the tested form may be a part): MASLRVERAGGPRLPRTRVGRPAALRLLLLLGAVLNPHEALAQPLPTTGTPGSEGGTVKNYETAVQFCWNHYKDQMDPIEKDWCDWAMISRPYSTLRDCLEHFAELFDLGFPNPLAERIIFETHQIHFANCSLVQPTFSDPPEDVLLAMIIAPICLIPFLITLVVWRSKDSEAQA

human adrenomedullin-receptor, sequence (Q16602 23-461): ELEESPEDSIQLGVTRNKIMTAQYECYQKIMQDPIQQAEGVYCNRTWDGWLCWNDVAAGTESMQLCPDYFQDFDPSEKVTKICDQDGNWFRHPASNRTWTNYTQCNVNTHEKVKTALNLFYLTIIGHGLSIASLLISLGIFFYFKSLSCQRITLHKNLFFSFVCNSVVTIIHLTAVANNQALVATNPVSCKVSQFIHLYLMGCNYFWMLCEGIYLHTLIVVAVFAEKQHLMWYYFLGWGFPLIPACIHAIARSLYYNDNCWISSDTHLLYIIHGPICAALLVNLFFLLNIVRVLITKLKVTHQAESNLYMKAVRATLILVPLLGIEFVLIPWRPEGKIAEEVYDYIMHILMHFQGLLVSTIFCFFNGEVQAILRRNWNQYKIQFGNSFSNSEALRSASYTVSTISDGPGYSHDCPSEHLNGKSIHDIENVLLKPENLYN

B1: [G^14, (Orn^16, D^21)lac]ADM(14-52) (peptide)
peptide: GG[Orn]RFGTDTVQKLAHQIYQFTDKDKDNVAPRSKISPQGY-NH2
modifications: lactam 3-8; N-terminus assumed
SMILES: CC[C@H](C)[C@H](NC(=O)[C@H](CCC(N)=O)NC(=O)[C@H](Cc1c[nH]cn1)NC(=O)[C@H](C)NC(=O)[C@H](CC(C)C)NC(=O)[C@H](CCCCN)NC(=O)[C@H](CCC(N)=O)NC(=O)[C@@H](NC(=O)[C@@H](NC(=O)[C@@H]1CC(=O)NCCC[C@H](NC(=O)CNC(=O)CN)C(=O)N[C@@H](CCCNC(=N)N)C(=O)N[C@@H](Cc2ccccc2)C(=O)NCC(=O)N[C@@H]([C@@H](C)O)C(=O)N1)[C@@H](C)O)C(C)C)C(=O)N[C@@H](Cc1ccc(O)cc1)C(=O)N[C@@H](CCC(N)=O)C(=O)N[C@@H](Cc1ccccc1)C(=O)N[C@H](C(=O)N[C@@H](CC(=O)O)C(=O)N[C@@H](CCCCN)C(=O)N[C@@H](CC(=O)O)C(=O)N[C@@H](CCCCN)C(=O)N[C@@H](CC(=O)O)C(=O)N[C@@H](CC(N)=O)C(=O)N[C@H](C(=O)N[C@@H](C)C(=O)N1CCC[C@H]1C(=O)N[C@@H](CCCNC(=N)N)C(=O)N[C@@H](CO)C(=O)N[C@@H](CCCCN)C(=O)N[C@H](C(=O)N[C@@H](CO)C(=O)N1CCC[C@H]1C(=O)N[C@@H](CCC(N)=O)C(=O)NCC(=O)N[C@@H](Cc1ccc(O)cc1)C(N)=O)[C@@H](C)CC)C(C)C)[C@@H](C)O
[1]
  EC50 [nM], aequorin luminescence of CHO adrenomedullin-receptor reporter cells: > 1000 nM
[2]
  EC50 [nM], cAMP assay (CRE-luciferase luminescence, HEK293 cells): > 1000 nM

## GGDRFGT[Orn]TVQKLAHQIYQFTDKDKDNVAPRSKISPQGY-NH2 (lactam 3-8) [[G^14, (D^16, Orn^21)lac]ADM(14-52)]
[1]
  EC50 [nM], aequorin luminescence of CHO adrenomedullin-receptor reporter cells: 17.3 nM
[2]
  EC50 [nM], cAMP assay (CRE-luciferase luminescence, HEK293 cells): 20 nM
